One block for each binder: values may come before it.
Tests used:
Conditions in all cases: both partners purified
[1] = biological target: T1, full-length Rrp5 (recombinant) (S. cerevisiae, UniProt Q05022 1-1729); test: pull-down; 5 uM Has1 with 3 uM His-Rrp5 on Ni-NTA resin, pull-down buffer, 4°C; eluted with 300 mM imidazole
T1 construct: Rrp5, S. cerevisiae, 193 kDa, 12 S1 domains followed by seven TPR repeats; The His6 tag is named only for the Has1 pull-down (His6-Rrp5, His-Rrp5); I take both to be the one Rrp5-FL preparation; also called Rrp5-FL; Rrp5_FL
T1 sequence (Q05022 whole entry, the tested form may be a part): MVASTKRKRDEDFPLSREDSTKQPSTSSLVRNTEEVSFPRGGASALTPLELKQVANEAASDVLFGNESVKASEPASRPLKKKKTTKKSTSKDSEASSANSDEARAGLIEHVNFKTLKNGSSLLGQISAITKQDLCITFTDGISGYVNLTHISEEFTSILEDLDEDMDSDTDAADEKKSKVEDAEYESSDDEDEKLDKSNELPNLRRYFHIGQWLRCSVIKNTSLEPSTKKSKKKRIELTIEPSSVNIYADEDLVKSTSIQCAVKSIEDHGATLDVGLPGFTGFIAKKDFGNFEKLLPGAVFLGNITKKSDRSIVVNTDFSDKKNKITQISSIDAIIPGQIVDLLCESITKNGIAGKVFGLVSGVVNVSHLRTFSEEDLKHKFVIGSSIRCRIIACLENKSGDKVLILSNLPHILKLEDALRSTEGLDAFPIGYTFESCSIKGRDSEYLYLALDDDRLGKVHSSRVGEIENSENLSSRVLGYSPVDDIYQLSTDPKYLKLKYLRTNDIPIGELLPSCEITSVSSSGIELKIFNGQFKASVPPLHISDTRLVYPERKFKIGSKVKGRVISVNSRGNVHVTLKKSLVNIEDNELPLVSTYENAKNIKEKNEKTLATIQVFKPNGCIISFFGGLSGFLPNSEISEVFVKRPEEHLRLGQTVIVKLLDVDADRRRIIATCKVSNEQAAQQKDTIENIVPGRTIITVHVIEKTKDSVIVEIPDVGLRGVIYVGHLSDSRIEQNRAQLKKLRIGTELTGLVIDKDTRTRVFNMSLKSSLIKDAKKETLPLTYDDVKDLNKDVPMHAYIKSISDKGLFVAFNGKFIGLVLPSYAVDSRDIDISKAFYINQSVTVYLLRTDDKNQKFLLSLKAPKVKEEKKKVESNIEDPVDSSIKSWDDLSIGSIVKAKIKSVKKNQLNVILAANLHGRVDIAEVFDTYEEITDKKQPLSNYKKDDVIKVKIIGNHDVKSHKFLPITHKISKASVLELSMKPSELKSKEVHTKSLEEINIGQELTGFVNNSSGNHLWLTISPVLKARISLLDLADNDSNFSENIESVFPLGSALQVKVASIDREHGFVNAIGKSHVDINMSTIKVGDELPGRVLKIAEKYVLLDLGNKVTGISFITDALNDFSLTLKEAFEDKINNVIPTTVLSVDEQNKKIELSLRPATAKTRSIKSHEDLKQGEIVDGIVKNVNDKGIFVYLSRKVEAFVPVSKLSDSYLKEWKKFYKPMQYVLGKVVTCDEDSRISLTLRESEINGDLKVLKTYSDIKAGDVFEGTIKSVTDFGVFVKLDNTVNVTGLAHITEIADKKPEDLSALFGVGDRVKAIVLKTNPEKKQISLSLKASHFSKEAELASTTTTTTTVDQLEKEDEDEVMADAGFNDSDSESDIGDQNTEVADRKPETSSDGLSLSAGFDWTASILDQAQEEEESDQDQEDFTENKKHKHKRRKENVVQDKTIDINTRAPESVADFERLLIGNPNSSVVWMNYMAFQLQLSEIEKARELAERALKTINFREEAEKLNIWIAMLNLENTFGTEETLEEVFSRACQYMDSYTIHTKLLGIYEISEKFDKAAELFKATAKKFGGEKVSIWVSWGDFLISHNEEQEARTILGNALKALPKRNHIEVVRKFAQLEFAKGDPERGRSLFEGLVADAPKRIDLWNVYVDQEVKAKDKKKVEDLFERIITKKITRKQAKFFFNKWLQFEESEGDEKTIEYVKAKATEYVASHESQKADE

[2] = biological target: T1, full-length Rrp5 (recombinant); test: negative-stain single-particle EM reconstruction; 100 pmol Rok1 incubated with Rrp5 in 300 mM NaCl, 10 mM MgCl2, 30 mM MES pH 6.7, 20°C, 2 h; GraFix glycerol/glutaraldehyde gradient; uranyl formate stain
[3] = biological target: T1, full-length Rrp5 (recombinant); test: pull-down; 5 uM FL Rrp5 or Rrp5 fragments with 3 uM GST-Rok1 (or GST) on GSH sepharose; 150 mM NaCl, 30 mM HEPES/NaOH pH 7.5, 5% glycerol; 4°C; eluted with 20 mM reduced glutathione
[4] = biological target: T1, full-length Rrp5 (recombinant); test: pull-down; 10 uM FL Rrp5 or Rrp5_TPR2+7 with 15 uM MBP-Rok1 (or MBP) on amylose resin; 150 mM NaCl, 30 mM HEPES/NaOH pH 7.5, 5% glycerol; 4°C; eluted with 20 mM maltose

binding result [1]: binds
B1: Has1 (recombinant) (enzyme)
chain: not shown
notes: Has1, DEAD-box protein, HAS1 gene cloned from yeast into pSV272 as a TEV-cleavable His6-MBP fusion; also called recombinant Has1; source: E. coli Rosetta2 (DE3), purified (Ni-NTA, MonoS, Superdex S-200)

binding result [2]: binds
B2: Rok1 (recombinant) (enzyme, S. cerevisiae, UniProt P45818 1-564, looked up)
chain: MDIFRVLTRGASVKKESGPKAKAADYSVINGNDENHKEDNNESQIVKELDFFRNKRIISKVEDDREKTTENDSPNKEEKSGNDDGLIKPVITNTVEASALRKSYKGNVSGIDIPLPIGSFEDLISRFSFDKRLLNNLIENGFTEPTPIQCECIPVALNNRDVLACGPTGSGKTLAFLIPLVQQIIDDKQTAGLKGLIISPTKELANQIFIECFKLSYKIFLEKKRPLQVALLSKSLGAKLKNKVVSDKKYDIIISTPLRLIDVVKNEALDLSKVKHLIFDEADKLFDKTFVEQSDDILSACREPSLRKAMFSATIPSNVEEIAQSIMMDPVRVIIGHKEAANTNIEQKLIFCGNEEGKLIAIRQLVQEGEFKPPIIIFLESITRAKALYHELMYDRINVDVIHAERTALQRDRIIERFKTGELWCLICTDVLARGIDFKGVNLVINYDVPGSSQAYVHRIGRTGRGGRSGKAITFYTKQDSVAIKPIINVMKQSGCEVSEWMDKMAKMTRKEKESIKNGKAHKERKQITTVPKMDKAKRRRQQEMIAASKRRKNEELSKKHFSK
notes: Rok1, DEAD-box protein, 64 kDa; Named Rok1 without a tag, in contrast to MBP-Rok1 and GST-Rok1; also called recombinant Rok1

binding result [3]: binds
B3: glutathione S-transferase (GST)-tagged Rok1 (enzyme, S. cerevisiae, UniProt P45818 1-564, looked up)
chain: B2 chain
notes: Rok1, DEAD-box protein; also called GST-Rok1; source: E. coli Rosetta2 (DE3), recombinant; purification not described here

binding result [4]: binds
B4: maltose binding protein (MBP)-tagged Rok1 (enzyme, S. cerevisiae, UniProt P45818 1-564, looked up)
chain: B2 chain
notes: Rok1, DEAD-box protein; also called MBP-Rok1; source: E. coli Rosetta2 (DE3), recombinant; purification not described here

— PMC4900678, “The DEAD-box Protein Rok1 Orchestrates 40S and 60S Ribosome Assembly by Promoting the Release of Rrp5 from Pre-40S Ribosomes to Allow for 60S Maturation” (PLoS Biology, 2016)
